Experimental data as given in publication PMC9482650, “Quantitative fragmentomics allow affinity mapping of interactomes” (Nature Communications, 2022).

Experiments:
Test in all cases: holdup assay
Set-up in all cases: key: below the threshold = too weak to quantify, mostly under pKd 3.1 to 4
ARHGEF12, Q9NZN5-2 = target: ARHGEF12, Q9NZN5-2
DLG2_2, Q15700 = target: DLG2_2, Q15700
DLG2_3, Q15700 = target: DLG2_3, Q15700
DLG3_1, Q92796 = target: T1, DLG3_1, Q92796
T1 sequence (Q92796 125-227, limits assumed, looked up): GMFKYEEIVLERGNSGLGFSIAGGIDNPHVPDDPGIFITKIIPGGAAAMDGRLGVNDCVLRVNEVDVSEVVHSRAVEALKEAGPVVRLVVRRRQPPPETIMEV

FRMPD2_1, Q68DX3 = target: FRMPD2_1, Q68DX3
GORASP2, Q9H8Y8 = target: GORASP2, Q9H8Y8
GRIP2_3, Q9C0E4 = target: GRIP2_3, Q9C0E4
GRIP2_5, Q9C0E4 = target: GRIP2_5, Q9C0E4
GRIP2_6, Q9C0E4 = target: GRIP2_6, Q9C0E4
HTRA4, P83105 = target: T2, HTRA4, P83105
T2 sequence (P83105 378-476, limits assumed, looked up): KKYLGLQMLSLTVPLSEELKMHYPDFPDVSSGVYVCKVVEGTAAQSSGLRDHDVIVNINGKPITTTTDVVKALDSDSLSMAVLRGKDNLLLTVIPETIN

Inadl_1, Q8NI35 = target: Inadl_1, Q8NI35
LDB3, O75112 = target: LDB3, O75112
LIN7B, Q9HAP6 = target: T3, LIN7B, Q9HAP6
T3 sequence (Q9HAP6 88-185, limits assumed, looked up): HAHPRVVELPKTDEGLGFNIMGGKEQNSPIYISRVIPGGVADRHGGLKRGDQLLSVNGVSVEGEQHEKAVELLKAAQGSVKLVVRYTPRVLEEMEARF

LNX1_3, Q8TBB1 = target: LNX1_3, Q8TBB1
LRRC7, Q96NW7 = target: T4, LRRC7, Q96NW7
T4 sequence (Q96NW7 1440-1537, limits assumed, looked up): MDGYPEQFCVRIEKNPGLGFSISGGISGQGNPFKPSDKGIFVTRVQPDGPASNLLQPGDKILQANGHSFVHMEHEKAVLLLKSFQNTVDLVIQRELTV

MAST2, Q6P0Q8 = target: MAST2, Q6P0Q8
MPP2, Q14168 = target: T5, MPP2, Q14168
T5 sequence (Q14168 180-250, limits assumed, looked up): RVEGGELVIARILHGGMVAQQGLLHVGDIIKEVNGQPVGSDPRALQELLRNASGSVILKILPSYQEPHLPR

MPP6, Q9NZW5 = target: T6, MPP6, Q9NZW5
T6 sequence (Q9NZW5 125-219, limits assumed, looked up): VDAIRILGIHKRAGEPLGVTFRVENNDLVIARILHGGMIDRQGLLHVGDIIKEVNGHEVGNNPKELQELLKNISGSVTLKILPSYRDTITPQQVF

NHERF3_1, Q5T2W1 = target: T7, NHERF3_1, Q5T2W1
T7 sequence (Q5T2W1 4-100, limits assumed, looked up): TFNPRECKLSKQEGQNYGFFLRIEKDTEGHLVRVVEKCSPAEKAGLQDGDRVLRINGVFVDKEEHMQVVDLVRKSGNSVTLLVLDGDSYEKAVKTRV

NHERF3_4, Q5T2W1 = target: T8, NHERF3_4, Q5T2W1
T8 sequence (Q5T2W1 373-468, limits assumed, looked up): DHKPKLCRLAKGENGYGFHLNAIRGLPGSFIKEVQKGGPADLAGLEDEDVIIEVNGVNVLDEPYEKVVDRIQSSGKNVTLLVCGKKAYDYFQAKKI

PDLIM1, O00151 = target: PDLIM1, O00151
PDZRN3_1, Q9UPQ7 = target: T9, PDZRN3_1, Q9UPQ7
T9 sequence (Q9UPQ7 244-349, limits assumed, looked up): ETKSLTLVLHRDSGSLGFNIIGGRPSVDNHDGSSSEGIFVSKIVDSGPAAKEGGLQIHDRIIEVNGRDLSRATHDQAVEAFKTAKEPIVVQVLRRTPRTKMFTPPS

SCRIB_2, Q14160 = target: SCRIB_2, Q14160
SNTB1, Q13884 = target: T10, SNTB1, Q13884
T10 sequence (Q13884 107-205, limits assumed, looked up): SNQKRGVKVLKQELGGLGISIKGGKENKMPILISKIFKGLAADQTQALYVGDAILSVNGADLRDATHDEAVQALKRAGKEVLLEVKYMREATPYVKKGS

TJP1_2, Q07157 = target: TJP1_2, Q07157
TX1BP3, O14907 = target: T11, TX1BP3, O14907
T11 sequence (O14907 10-122, limits assumed, looked up): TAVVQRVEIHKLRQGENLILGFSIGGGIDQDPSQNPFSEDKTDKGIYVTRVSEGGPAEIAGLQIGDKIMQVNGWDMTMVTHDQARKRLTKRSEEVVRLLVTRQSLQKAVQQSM

[1] = plain residues with an end cap or a label only (N-terminal biotin on a linker: ttds)
[2] = plain residues with an end cap or a label only (N-terminal biotin on a linker: ahx)

GRIP2_6, Q9C0E4, sequence (Q9C0E4 648-740): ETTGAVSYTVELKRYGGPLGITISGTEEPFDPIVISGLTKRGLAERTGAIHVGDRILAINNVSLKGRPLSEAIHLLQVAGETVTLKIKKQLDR
LDB3, O75112, sequence (O75112 1-94): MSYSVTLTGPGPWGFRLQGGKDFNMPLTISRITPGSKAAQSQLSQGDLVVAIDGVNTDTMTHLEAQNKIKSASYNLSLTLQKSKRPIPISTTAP
GRIP2_3, Q9C0E4, sequence (Q9C0E4 238-339): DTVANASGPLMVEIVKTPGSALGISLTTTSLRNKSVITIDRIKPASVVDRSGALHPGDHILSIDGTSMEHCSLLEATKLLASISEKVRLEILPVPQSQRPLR
FRMPD2_1, Q68DX3, sequence (Q68DX3 770-861): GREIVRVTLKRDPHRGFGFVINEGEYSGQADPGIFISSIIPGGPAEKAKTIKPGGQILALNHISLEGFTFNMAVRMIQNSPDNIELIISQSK
GRIP2_5, Q9C0E4, sequence (Q9C0E4 544-642): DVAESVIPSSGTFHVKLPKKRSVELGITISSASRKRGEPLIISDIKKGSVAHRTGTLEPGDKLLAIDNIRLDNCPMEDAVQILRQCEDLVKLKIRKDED
MAST2, Q6P0Q8, sequence (Q6P0Q8 1099-1202): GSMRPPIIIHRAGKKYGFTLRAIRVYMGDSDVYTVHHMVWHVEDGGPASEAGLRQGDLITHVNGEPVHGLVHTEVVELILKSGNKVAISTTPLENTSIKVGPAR
PDLIM1, O00151, sequence (O00151 1-87): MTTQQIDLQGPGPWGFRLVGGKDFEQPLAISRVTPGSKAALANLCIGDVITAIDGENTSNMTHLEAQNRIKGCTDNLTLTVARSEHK
SCRIB_2, Q14160, sequence (Q14160 857-960): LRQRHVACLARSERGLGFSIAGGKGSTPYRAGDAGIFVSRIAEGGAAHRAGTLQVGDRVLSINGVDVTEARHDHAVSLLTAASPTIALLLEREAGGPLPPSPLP
Inadl_1, Q8NI35, sequence (Q8NI35 113-229): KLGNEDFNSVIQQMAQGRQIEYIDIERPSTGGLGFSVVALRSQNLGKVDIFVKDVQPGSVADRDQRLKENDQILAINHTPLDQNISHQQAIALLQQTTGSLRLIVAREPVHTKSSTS
LNX1_3, Q8TBB1, sequence (Q8TBB1 500-596): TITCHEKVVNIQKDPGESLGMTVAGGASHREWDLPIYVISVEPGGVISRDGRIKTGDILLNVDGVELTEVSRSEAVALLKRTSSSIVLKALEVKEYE
TJP1_2, Q07157, sequence (Q07157 181-274): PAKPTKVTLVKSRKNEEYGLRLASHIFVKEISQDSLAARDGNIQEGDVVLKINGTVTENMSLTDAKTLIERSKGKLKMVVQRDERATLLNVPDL
ARHGEF12, Q9NZN5-2, sequence (Q9NZN5 other isoform, or with tags, fused parts or gaps): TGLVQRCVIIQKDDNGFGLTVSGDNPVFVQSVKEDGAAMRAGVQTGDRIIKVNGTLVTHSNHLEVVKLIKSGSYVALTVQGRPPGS

B1: MAP2K2, P36507 (peptide)
chain: QPGTPTRTAV
ARHGEF12, Q9NZN5-2; [1]
  pKd: 3.66
DLG2_2, Q15700; [1]
  pKd: 3.87
DLG2_3, Q15700; [1]
  pKd: 3.91
DLG3_1, Q92796; [1]
  pKd: below the threshold
FRMPD2_1, Q68DX3; [1]
  pKd: below the threshold
GORASP2, Q9H8Y8; [1]
  pKd: below the threshold
GRIP2_3, Q9C0E4; [1]
  pKd: below the threshold
GRIP2_5, Q9C0E4; [1]
  pKd: below the threshold
GRIP2_6, Q9C0E4; [1]
  pKd: below the threshold
HTRA4, P83105; [1]
  pKd: below the threshold
Inadl_1, Q8NI35; [1]
  pKd: below the threshold
LDB3, O75112; [1]
  pKd: below the threshold
LIN7B, Q9HAP6; [1]
  pKd: below the threshold
LNX1_3, Q8TBB1; [1]
  pKd: 3.67
LRRC7, Q96NW7; [1]
  pKd: below the threshold
MAST2, Q6P0Q8; [1]
  pKd: 4.34
MPP2, Q14168; [1]
  pKd: below the threshold
MPP6, Q9NZW5; [1]
  pKd: 3.52
NHERF3_1, Q5T2W1; [1]
  pKd: below the threshold
NHERF3_4, Q5T2W1; [1]
  pKd: below the threshold
PDLIM1, O00151; [1]
  pKd: 3.47
PDZRN3_1, Q9UPQ7; [1]
  pKd: below the threshold
SCRIB_2, Q14160; [1]
  pKd: below the threshold
SNTB1, Q13884; [1]
  pKd: below the threshold
TJP1_2, Q07157; [1]
  pKd: below the threshold
TX1BP3, O14907; [1]
  pKd: 3.97

B2: RAPGEF2, Q9Y4G8 (peptide)
chain: EDEDEQVSAV
ARHGEF12, Q9NZN5-2; [2]
  pKd: 3.71
DLG2_2, Q15700; [2]
  pKd: below the threshold
DLG2_3, Q15700; [2]
  pKd: below the threshold
DLG3_1, Q92796; [2]
  pKd: below the threshold
FRMPD2_1, Q68DX3; [2]
  pKd: below the threshold
GORASP2, Q9H8Y8; [2]
  pKd: below the threshold
GRIP2_3, Q9C0E4; [2]
  pKd: below the threshold
GRIP2_5, Q9C0E4; [2]
  pKd: below the threshold
GRIP2_6, Q9C0E4; [2]
  pKd: below the threshold
HTRA4, P83105; [2]
  pKd: below the threshold
Inadl_1, Q8NI35; [2]
  pKd: below the threshold
LDB3, O75112; [2]
  pKd: below the threshold
LIN7B, Q9HAP6; [2]
  pKd: below the threshold
LNX1_3, Q8TBB1; [2]
  pKd: below the threshold
LRRC7, Q96NW7; [2]
  pKd: below the threshold
MAST2, Q6P0Q8; [2]
  pKd: 4.92
MPP2, Q14168; [2]
  pKd: below the threshold
MPP6, Q9NZW5; [2]
  pKd: below the threshold
NHERF3_1, Q5T2W1; [2]
  pKd: below the threshold
NHERF3_4, Q5T2W1; [2]
  pKd: below the threshold
PDLIM1, O00151; [2]
  pKd: below the threshold
PDZRN3_1, Q9UPQ7; [2]
  pKd: below the threshold
SCRIB_2, Q14160; [2]
  pKd: below the threshold
SNTB1, Q13884; [2]
  pKd: 3.87
TJP1_2, Q07157; [2]
  pKd: below the threshold
TX1BP3, O14907; [2]
  pKd: below the threshold

B3: PDLIM7, Q9NR12;Q9NR12-1 (peptide)
chain: LCKSHAFSHV
DLG2_3, Q15700; [2]
  pKd: below the threshold
DLG3_1, Q92796; [2]
  pKd: below the threshold
FRMPD2_1, Q68DX3; [2]
  pKd: below the threshold
GORASP2, Q9H8Y8; [2]
  pKd: below the threshold
GRIP2_3, Q9C0E4; [2]
  pKd: below the threshold
GRIP2_5, Q9C0E4; [2]
  pKd: below the threshold
GRIP2_6, Q9C0E4; [2]
  pKd: below the threshold
HTRA4, P83105; [2]
  pKd: below the threshold
Inadl_1, Q8NI35; [2]
  pKd: below the threshold
LDB3, O75112; [2]
  pKd: below the threshold
LIN7B, Q9HAP6; [2]
  pKd: below the threshold
LNX1_3, Q8TBB1; [2]
  pKd: below the threshold
LRRC7, Q96NW7; [2]
  pKd: below the threshold
MAST2, Q6P0Q8; [2]
  pKd: 4.21
MPP2, Q14168; [2]
  pKd: below the threshold
MPP6, Q9NZW5; [2]
  pKd: below the threshold
NHERF3_1, Q5T2W1; [2]
  pKd: below the threshold
NHERF3_4, Q5T2W1; [2]
  pKd: below the threshold
PDLIM1, O00151; [2]
  pKd: below the threshold
PDZRN3_1, Q9UPQ7; [2]
  pKd: below the threshold
SCRIB_2, Q14160; [2]
  pKd: below the threshold
SNTB1, Q13884; [2]
  pKd: below the threshold
TJP1_2, Q07157; [2]
  pKd: below the threshold
TX1BP3, O14907; [2]
  pKd: 3.95
